Data: patent US20020119153A1

Columns and labels:
[1] = molecular target: VEGF:sFlk-1 complex (human; mouse) (UniProt P15692); assay: capture ELISA: biotinylated sFlk-1 complexed with VEGF titrated onto wells coated with the antibody; concentration giving 50% maximal binding; extrapolated value
[2] = molecular target: recombinant human VEGF165 (human) (UniProt P15692); assay: blocking ELISA, negative control: 1 nM VEGF bound to wells coated with VEGFR2 (sFlk-1) with 100 nM control IgG of irrelevant specificity (100x) present; bound VEGF detected with rabbit anti-VEGF A-20; the number measures VEGF:VEGFR2 binding, not binding of the control IgG to VEGF
recombinant human VEGF165 (human), sequence (P15692 other isoform, or with tags, fused parts or gaps): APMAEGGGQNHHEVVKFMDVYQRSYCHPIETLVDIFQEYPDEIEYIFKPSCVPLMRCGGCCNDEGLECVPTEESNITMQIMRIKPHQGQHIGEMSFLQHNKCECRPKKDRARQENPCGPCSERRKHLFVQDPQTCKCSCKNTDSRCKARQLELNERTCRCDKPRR

[3] = molecular target: recombinant human VEGF165 (human) (UniProt P15692); assay: blocking ELISA, negative control: 1 nM VEGF bound to wells coated with VEGFR1 (Flt-1/Fc) with 100 nM control IgG of irrelevant specificity (100x) present; bound VEGF detected with rabbit anti-VEGF A-20; the number measures VEGF:VEGFR1 binding, not binding of the control IgG to VEGF
[4] = molecular target: recombinant human VEGF165 (human) (UniProt P15692); assay: blocking ELISA, negative control: 1 nM VEGF bound to wells coated with VEGFR2 (sFlk-1) with 1000 nM control IgG of irrelevant specificity (1000x) present; bound VEGF detected with rabbit anti-VEGF A-20; the number measures VEGF:VEGFR2 binding, not binding of the control IgG to VEGF
[5] = molecular target: recombinant human VEGF165 (human) (UniProt P15692); assay: blocking ELISA, negative control: 1 nM VEGF bound to wells coated with VEGFR1 (Flt-1/Fc) with 1000 nM control IgG of irrelevant specificity (1000x) present; bound VEGF detected with rabbit anti-VEGF A-20; the number measures VEGF:VEGFR1 binding, not binding of the control IgG to VEGF

VEGF:sFlk-1 complex (human; mouse), sequence (P15692 other isoform, or with tags, fused parts or gaps limits assumed, chain 1 of 2): as the sequence (P15692 other isoform, or with tags, fused parts or gaps) above
VEGF:sFlk-1 complex (human; mouse), sequence (P35918 20-762 limits assumed, chain 2 of 2, further chain): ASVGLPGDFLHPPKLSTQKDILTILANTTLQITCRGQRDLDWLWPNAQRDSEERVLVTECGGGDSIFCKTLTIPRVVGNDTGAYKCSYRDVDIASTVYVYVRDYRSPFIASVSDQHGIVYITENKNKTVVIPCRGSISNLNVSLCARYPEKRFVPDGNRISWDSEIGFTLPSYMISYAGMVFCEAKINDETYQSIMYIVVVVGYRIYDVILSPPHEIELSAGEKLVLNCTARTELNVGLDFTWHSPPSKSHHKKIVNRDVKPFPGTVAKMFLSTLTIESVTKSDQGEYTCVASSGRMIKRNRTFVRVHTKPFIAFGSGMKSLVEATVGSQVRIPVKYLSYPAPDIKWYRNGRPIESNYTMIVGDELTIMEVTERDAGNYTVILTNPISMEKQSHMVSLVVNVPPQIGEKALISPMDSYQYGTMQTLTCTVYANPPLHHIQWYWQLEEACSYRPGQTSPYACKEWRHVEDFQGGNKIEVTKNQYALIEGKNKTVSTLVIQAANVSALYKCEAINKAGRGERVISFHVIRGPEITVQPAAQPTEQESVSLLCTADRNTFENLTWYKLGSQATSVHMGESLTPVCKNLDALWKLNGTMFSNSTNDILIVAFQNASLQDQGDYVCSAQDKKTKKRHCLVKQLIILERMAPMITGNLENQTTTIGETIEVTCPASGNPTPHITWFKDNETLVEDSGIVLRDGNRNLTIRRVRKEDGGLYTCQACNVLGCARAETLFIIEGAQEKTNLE

Row | EC50 [1] [nM] | % of VEGF alone [2] [%] | % of VEGF alone [3] [%] | % of VEGF alone [4] [%] | % of VEGF alone [5] [%] | Substance
1 | 500 | – | – | – | – | A4.6.1, mouse anti-human VEGF monoclonal antibody (Genentech)
2 | – | 96 | 98 | 93 | 92 | control IgG of irrelevant specificity (antibody)
3 | 600 | – | – | – | – | irrelevant IgM (negative control) (antibody)
